The source of these data is the DeepSol protein solubility set.

This data set can be described thus: soluble on expression in E. coli; label from the status in PepcDB or PDB records.
Regarding “MLPNNQWQIPINNGLTHQENMAAHAAVMKLRVHDLQSIISQLSLRKPRPQKSEHQKVVVESLRDPHHARQIYQMVISLIFSSLQASNFPNGNYEMQKRPATTSQVRSHPYVLPSRSGASNHLVNHHYQQQQQQQPQPHNLLHQQMMASHHSHLQQQHHPSTPKKMYADNFEPLPLPFYDVISVLLKPVELHSSDSPTLKQTKQLQFPFLLTAEHISKISYRADVTPLPRYELQLRFFNLTEPVQGPQKDDFPLNCYARVDDSVVQLPNVIPTNKTNAEPKRPSRPVNITSNMNRYKKEHTVAVEWLADKRVWAAGVYFVHRVNSDILFKRLNQNVSRHRSLEVTKQEVIKKLSGGEDDIAMDRLNISLLDPLCKTRMTTPSRCQDCTHLQCFDLLSYLMMNEKKPTWQCPVCSSNCPYDRLIVDDYFLDMLAKVDKNTTEVELKEDGSYDVIKEEAFCISDDDDDDVVPATVNGTASCSSTNGNGLANEAAKKKPADDDIITLSDDDDEELNRGIMNSLNDSFSPGRHTASAELAAQKTPPQQKKKTKDDDIEIITLDDTPPRPVAASANLPMRQMSQQNQMPVGSSPSGMASTQMGMNEGASKTIRDALNKIGEPMINQAPHFQMQNGLIGRNNQMVHMQQHHLQQQQQQQQSPQIMSPSFYAQQQMSNGGAFAYYPPQYPQQQYRQN”, the “soluble on expression in E. coli” value is “not soluble”.

Turning to “MLPPPRREPDWSAQAFRWHRQGLAGWLEAVHEPHAVALDRLACVDAQREQLLANTRQFVAGLPANNVLLTGARGTGKSSLVKALLPEFGRDGLRLIEIDREHLADLPQLVELLSGRPERFVLFCDDLSFEHGDAGYKALKSALDGGLARRCDNLLVYATSNRRHLLPEQMSENREGWLRDGEIHPGEAVEEKVSLSDRFGLWLSFYPFDQDAYLAAVREWLGHFGLKYGDKAERAALQWSLSRGSRSGRVAWQFACHWAGSQKLARRSGKKLEHHHHHH”, the “soluble on expression in E. coli” value is reported as “not soluble”.

Regarding “MLPSKYEDNALQIKEKSTERTAPFFVLEVTARSAADILGIHPNSAALFYRKIRTVINHHLALAADEVFEGPVEPDESDFGGRRKGRRGRGAAGKVVVFGILKRNGRVYTVVVDNAKSETLLPVIKKKIMPDSIVYTDSLSSYDKLDVSGFIHYRINHSKECADRQNHINGIENFWNQAKRVLRKYNGIDRKSFPLFLKECEFRFNFGTPSQQLKILRDWCGILEHHHHHH”, the “soluble on expression in E. coli” value is listed as “not soluble”.

“MLQPKRTKFRKVHKGRNRGIASGTEVSFGTYGLKAVGRCRLTARQIEAARRAMSRAVKRQGKIWIRVFPDKPITEKPLEVRMGKGKGNVEYWVALIQPGKVLYEMDGVSEEVARNAFALAAAKLPVKTTFVTKTVMLEHHHHHH”: the “soluble on expression in E. coli” value is given as “not soluble”.

In the case of “MLQSNEYFSGKVKSIGFSSSSTGRASVGVMVEGEYTFSTAEPEEMTVISGALNVLLPDATDWQVYEAGSVFNVPGHSEFHLQVAEPTSYLCRYL”, the “soluble on expression in E. coli” value is listed as “soluble”.

Consider “MLRFFIQPQLNTIVDSVIGYEMLIKEYRDGTWRMPASFSAIPAHDMAELLIATAKELSLKVGSVSFNVDRNQILDDQLIHALIAAQTVLRPVKLIIELIENDVKPSVSDEQLIEVVTQLNDFGIQFCLDDVGSGINTWPAVKPLLPYTRELKYALQNYKEHLNESAAENHVTFWQNLATKHQMRFILEGIEDDNDDAWADSMNIDLRQGYYYGRP”, for which the “soluble on expression in E. coli” value was “not soluble”.

For the sequence “MLRFYAMKQITEPGTYEIRGEVAEGDFSWDATNFAGFFYDVNDDVSTESLTVTGLNGGNVIPEGGLVYETTIQMVDYEYSKPSVGWDQFPVLGFFAEEYIPINADKADKLAKLVLDSDDKYTIRTGEQLDLGEGYAIEAKQVDVDGEKVWLEFTKDGEFVDDEIISVVSGSDNTWEVELDDIQDEDDVVVLRVHVNQVFQGAVDSIAQIEGIWLIDYANAMKIESDDEFGDLDNVKINGATLTITNEDTFTLTRDDEVEIGQGMFFKVADTAASDLRYYPFVEKTIDGEVVDDDEDDDNVTEPVDNDTEVEEPTEEPTEGPTEELEHHHHHH”, the “soluble on expression in E. coli” value is “not soluble”.

Consider “MLRGLRIIAENKIGVLRDLTTIIAEEGGNITFAQTFLIKHGEHEGKALIYFEIEGGDFEKILERVKTFDYIIEIEEEESFERVFGKRVIILGGGALVSQVAIGAISEADRHNLRGERISVDTMPVVGEEEIAEAVKAVSRLHRAEVLVLAGGIMGGKITEEVKKLRKSGIRVISLSMFGSVPDVADVVISDPVMAGTLAVMHISEKAKFDLDRVKGRRI”, for which the “soluble on expression in E. coli” value was “soluble”.

As to “MLRKGVSFVGQAVQQTLKTQKNLRIQRFSATASQSSEEVNYEIRKDGKRLRGADYEEIVLTSIAGEDKTQIPKGAFDVLLKEYDDLQAESLDFKDKYQRSLAETENVRRRGIKQTDDAKVFAIQSFCKDLLEVSDILDIAVKSVKPEDLESGGKALKDLFEGVSMTRTVMAKTFAKHGLVTVDPTNEKFDPNLHEAVFQIPSANAKQPVGHIEVCTKIGYSLKERPIRPAQVGVVSK”, the “soluble on expression in E. coli” value is “not soluble”.

With “MLRKISLLLSICFLLHQNIAYGEDNQQSIYEKRMALYKETEQSSGIPWYYLAAMDQYERNIRSVRKDIPKKPDAIISLYFKPEIWAGPVNGNDTLPHTIALFGGLGLDGDKDGFANANNDRDLLHTAATILKKQGTSEERIKIMLWEYYRRAKTVDLITEYAQIYKHYGRINLEGNAFPLPIRSDHSYRSTFGAGRSFGGRRVHEGTDIFAGYGVPVRSTCYGIIETKGWNRLGGWRIGIRDLHNNYHYYAHLGGFSKEIQLGQIVEPGKVIGFVGSTGYGPPGTAGKFPPHLHFGMYKDNGYTEWAFDPYMHLSLWERKERANTKR”, the “soluble on expression in E. coli” value is recorded as “not soluble”.

In the case of “MLRRQARERREYLYRKAQELQDSQLQQKRQIIKQALAQGKPLPKELAEDESLQKDFRYDQSLKESEEADDLQVDDEYAATSGIMDPRIIVTTSRDPSTRLSQFAKEIKLLFPNAVRLNRGNYVMPNLVDACKKSGTTDLVVLHEHRGVPTSLTISHFPHGPTAQFSLHNVVMRHDIINAGNQSEVNPHLIFDNFTTALGKRVVCILKHLFNAGPKKDSERVITFANRGDFISVRQHVYVRTREGVEIAEVGPRFEMRLFELRLGTLENKDADVEWQLRRFIRTANKKDYL”, the “soluble on expression in E. coli” value is given as “soluble”.

For the sequence “MLRRQMSFNGKSDMGILYLVPTPIGNLEDMTFRAIDTLKSVDAIAAEDTRQTKKLCHVYEIETPLVSYHEHNKESSGHKIIEWLKSGKNIALVSDAGLPTISDPGAEIVKDFTDIGGYVVPLPGANAALTALIASGIVPQPFFFYGFLNRQKKEKKKELEALKKRQETIIFYEAPHRLKETLSAMAEILGDREIAVTRELTKKYEEFIRGTISEVIGWANEDQIRGEFCLVVEGSNNEEVDEEEQWWETLTAKEHVEHYISKGATSKEAIKKAAVDRNVPKREVYDAYHIKQLEHHHHHH”, the “soluble on expression in E. coli” value was “not soluble”.

Regarding “MLRVAVSAALRTVSVRALSNASVQQRVITPILLSAQKPSFQIRQYSAKAPLTKKTLEERIVLVLSLYDKIDAKKLTMDSDFSKDLGLDSLDHVEVVMAMEEEFGFEIPDGDADRFKTPRDIFQYIADKEDVFE”, the “soluble on expression in E. coli” value is recorded as “not soluble”.

Consider “MLSALLIAKRYSSKEDTMPHLFPDLPYAYDALEPYIDTKTMEVHYSKHHRTYYDKFLSAIKGTEHEDRPLSEIFARVSTLPAAVRNHGGGYYNHIVYWNCMKPNAGGEPQGELAAEIERQFGSFAQFKEAFSQAAVNTFGSGFVWLIVQQGQLSITSTSNQDNPLMDVVAVRGEPILALDVWEHAYYIRYQNRRPEYIDAWWNVVNWEAVSENYAIALTQAA”, for which the “soluble on expression in E. coli” value is recorded as “not soluble”.

For the sequence “MLSANRDCAFGRVHDFAGIRNAGDFRDKVPMHTYAQLQPWIERAQHESGAVLTTRPPLFFERSSGNSALQKLIPYTPEFLAQLQGSLTVWLADMYRQVPEISHGSGYWSMSPPLQQPAVSANGIPVGSVSDLQYLQGSAIAGLAGTLLIPDLAHDVVHWRRQTLLALVADADLSFISVWSPTFLTSLLQPLFDTERQTCAWLEAMLPASRKLALRHARAQGVFTELWPRLAAVSCWMDGPSHGYAVQLAALFPQARWLPKGLFATEGVVSVPFGEGQGCPLAIGSHYLEFVGDDGLPRGARSLRMGETAQVLLTTGAGLYRYVLGDRVRMVGNHAGTPRVAFVGRSASACDLVGEKLDEQLVEGVLAQCIDSADSACLIPDSRNTPPHYVALVSTSAVTPGQVLANSIETVLQGSFHYAHARTLGQLGPLRVRFVSGGAQTLAALLQRAAEATGVRAGDVKPRALISRLDTANALLAITEEFECPHL”, the “soluble on expression in E. coli” value is on record as “not soluble”.
